# Measurements from PMC6805484, “The RNA-binding ubiquitin ligase MKRN1 functions in ribosome-associated quality control of poly(A) translation” (Genome Biology, 2019).
# B1: recombinant His-MKRN1^wt (natural protein, human, UniProt Q9UHC7 1-482, looked up)
# chain: MAEAATPGTTATTSGAGAAAATAAAASPTPIPTVTAPSLGAGGGGGGSDGSGGGWTKQVTCRYFMHGVCKEGDNCRYSHDLSDSPYSVVCKYFQRGYCIYGDRCRYEHSKPLKQEEATATELTTKSSLAASSSLSSIVGPLVEMNTGEAESRNSNFATVGAGSEDWVNAIEFVPGQPYCGRTAPSCTEAPLQGSVTKEESEKEQTAVETKKQLCPYAAVGECRYGENCVYLHGDSCDMCGLQVLHPMDAAQRSQHIKSCIEAHEKDMELSFAVQRSKDMVCGICMEVVYEKANPSERRFGILSNCNHTYCLKCIRKWRSAKQFESKIIKSCPECRITSNFVIPSEYWVEEKEEKQKLILKYKEAMSNKACRYFDEGRGSCPFGGNCFYKHAYPDGRREEPQRQKVGTSSRYRAQRRNHFWELIEERENSNPFDNDEEEVVTFELGEMLLMLLAAGGDDELTDSEDEWDLFHDELEDFYDLDL
# notes: hsMKRN1 expressed from pET53-DEST; also called N-His6-tagged hsMKRN1; source: E. coli Rosetta 2(DE3) pLysS, purified (HisTrap FF, HiTrap Q HP, Superdex 200); not shown: His6, N-terminal, kept
# Biological target: T1, recombinant His-PABPC1 (human, UniProt P11940 1-636)
# T1 construct: hsPABPC1 expressed from pET53-DEST; also called N-His6-tagged hsPABPC1; source: E. coli Rosetta 2(DE3) pLysS, purified (HisTrap FF, HiTrap Heparin HP, Superdex 200); not shown: His6, N-terminal, kept
# T1 sequence (P11940 whole entry): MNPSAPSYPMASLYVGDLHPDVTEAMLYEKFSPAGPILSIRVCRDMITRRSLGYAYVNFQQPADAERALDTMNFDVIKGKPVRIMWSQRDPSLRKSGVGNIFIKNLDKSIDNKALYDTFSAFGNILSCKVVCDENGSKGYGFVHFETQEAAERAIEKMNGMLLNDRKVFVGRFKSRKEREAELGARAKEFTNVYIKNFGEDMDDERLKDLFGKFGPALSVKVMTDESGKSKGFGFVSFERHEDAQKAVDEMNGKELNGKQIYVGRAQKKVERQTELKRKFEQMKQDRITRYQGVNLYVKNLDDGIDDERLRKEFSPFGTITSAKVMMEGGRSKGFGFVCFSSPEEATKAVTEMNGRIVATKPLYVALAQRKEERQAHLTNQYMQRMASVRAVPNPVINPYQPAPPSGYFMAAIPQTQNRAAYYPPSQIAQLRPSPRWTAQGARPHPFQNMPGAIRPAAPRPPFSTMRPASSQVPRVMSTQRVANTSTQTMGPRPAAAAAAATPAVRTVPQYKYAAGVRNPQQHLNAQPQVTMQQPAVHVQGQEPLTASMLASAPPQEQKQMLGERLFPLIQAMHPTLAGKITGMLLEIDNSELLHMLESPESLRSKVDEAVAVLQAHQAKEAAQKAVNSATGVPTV
# Assay: pull-down; biotinylated 42-nt RNA (22 nt of the SRSF4 3′ UTR followed by A20, or by 20 V as control) on NeutrAvidin agarose beads, incubated with 2 μg His-MKRN1-WT and/or His-PABPC1, 1 h at 4 °C, 50 mM Tris-HCl pH 7.4, 500 mM KCl, 12.5 mM MgCl2, 1% Triton X-100; SDS-PAGE with Coomassie staining
# Conditions: both partners purified
binder,measurement,value
B1,binding result,binds
